Results as given in patent US20220177604A1 (ARGENX, published 2022).

Tests used:
[1] = target: T1, human immunoglobulin E (hIgE) (human, UniProt P01854-1 1-428); test: SPR competition
T1 construct: also called human IgE; Native IgE (Abcam)
Method: (§1) For this purpose, a competition approach was set-up. […] The assay was performed in HBS-EP pH7.4 or HBS-EP pH 5.5. Raw data were analyzed via BIA evaluation software with a blank subtraction (2-1). […] The IC50 values of each compound were calculated with a non-linear regression (log(agonist) vs. response Variable slope (four parameters)).

[2] = target: T1, human immunoglobulin E (hIgE); test: competition ELISA
Method: (§2) The IC50 values of each compound were calculated with a non-linear regression (log(agonist) vs. response Variable slope (four parameters)).

[3] = target: T1, human immunoglobulin E (hIgE); test: SPR competition, hIgE + mAb over hFcεRIα chip, pH 7.4
Method: as §1

[4] = target: T1, human immunoglobulin E (hIgE); test: competition ELISA, biotin-hIgE to coated hFcεRIα, pH 6
Method: as §2

[5] = target: T1, human immunoglobulin E (hIgE); test: competition ELISA, biotin-hIgE to coated hFcεRIα, pH 7.4
Method: as §2

[6] = target: T1, human immunoglobulin E (hIgE); test: SPR competition, hIgE + mAb over hFcεRIα chip, pH 6 (text: pH 5.5)
Method: as §1

[7] = target: T1, human immunoglobulin E (hIgE); test: SPR, Fab periplasmic extract, pH 7.4
[8] = target: T2, recombinant Motavizumab human IgE (rMota-hIgE) (human, UniProt P01854 1-428); test: SPR, Fab periplasmic extract, pH 7.4
T2 construct: also called Recombinant IgE (argenx)
T2 sequence (P01854 other isoform, or with tags, fused parts or gaps limits assumed, form in doubt): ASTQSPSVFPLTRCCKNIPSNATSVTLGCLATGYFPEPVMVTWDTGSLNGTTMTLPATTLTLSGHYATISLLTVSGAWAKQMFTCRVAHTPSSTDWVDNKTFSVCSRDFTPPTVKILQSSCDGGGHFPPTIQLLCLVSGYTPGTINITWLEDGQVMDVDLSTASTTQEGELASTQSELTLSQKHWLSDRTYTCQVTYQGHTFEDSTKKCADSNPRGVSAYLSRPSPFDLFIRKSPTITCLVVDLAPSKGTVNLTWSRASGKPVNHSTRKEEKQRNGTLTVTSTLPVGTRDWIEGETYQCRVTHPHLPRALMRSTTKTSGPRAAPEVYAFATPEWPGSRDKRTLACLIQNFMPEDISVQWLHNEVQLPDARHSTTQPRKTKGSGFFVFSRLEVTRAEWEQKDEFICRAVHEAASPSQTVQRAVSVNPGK

[9] = target: T2, recombinant Motavizumab human IgE …; test: ELISA: rMota-hIgE captured on coated RSV-F, washes at pH 5.5, anti-human Fc-HRP; EC50 unit inferred, x axis in pM
Method: (§3) Briefly a Maxisorp plate was coated with recombinant human respiratory syncytial virus protein F (RSV-F) (0.5 μg/mL), then blocked with PBS with 3% BSA and 0.05% Tween. […] After several washing steps at pH 7.4 or pH 5.5, detection of the bound mAbs was carried out with an anti-human Fc-HRP antibody.

[10] = target: T2, recombinant Motavizumab human IgE …; test: ELISA: rMota-hIgE captured on coated RSV-F, washes at pH 7.4, anti-human Fc-HRP; EC50 unit inferred, x axis in pM
Method: as §3

[11] = target: T2, recombinant Motavizumab human IgE …; test: ELISA: rMota-hIgE captured on coated RSV-F, washes at pH 5.5, anti-human Fc-HRP; EC50 unit inferred, x axis in pM; remark: listed apart in the source
Method: as §3

[12] = target: T2, recombinant Motavizumab human IgE …; test: ELISA: rMota-hIgE captured on coated RSV-F, washes at pH 7.4, anti-human Fc-HRP; EC50 unit inferred, x axis in pM; remark: listed apart in the source
Method: as §3

[13] = target: T1, human immunoglobulin E (hIgE); test: competition ELISA, hIgE to coated hFcεRIα, pH 6
Method: (§4) The IC50 values of each antibody were calculated with a non-linear regression (log(agonist) vs. response Variable slope (four parameters)).

[14] = target: T1, human immunoglobulin E (hIgE); test: competition ELISA, hIgE to coated hFcεRIα, pH 7.4
Method: as §4

[15] = target: T1, human immunoglobulin E (hIgE); test: SPR competition, hIgE over hFcεRIα chip, pH 5.5
Method: (§5) The assay was performed in HBS-EP pH7.4 or HBS-EP pH 5.5. Raw data were analyzed via BIA evaluation software with a blank subtraction (2-1). […] The IC50 values of each compound were calculated with a non-linear regression (log(agonist) vs. response Variable slope (four parameters)).
(§6) Raw data were analyzed via BIA evaluation software with a blank subtraction (2-1). […] The IC50 values of each compound, calculated with a non-linear regression (log(agonist) vs. response Variable slope (four parameters)).

[16] = target: T1, human immunoglobulin E (hIgE); test: SPR competition, hIgE over hFcεRIα chip, pH 7.4
Method: as §5, §6

T1 sequence (P01854 whole entry): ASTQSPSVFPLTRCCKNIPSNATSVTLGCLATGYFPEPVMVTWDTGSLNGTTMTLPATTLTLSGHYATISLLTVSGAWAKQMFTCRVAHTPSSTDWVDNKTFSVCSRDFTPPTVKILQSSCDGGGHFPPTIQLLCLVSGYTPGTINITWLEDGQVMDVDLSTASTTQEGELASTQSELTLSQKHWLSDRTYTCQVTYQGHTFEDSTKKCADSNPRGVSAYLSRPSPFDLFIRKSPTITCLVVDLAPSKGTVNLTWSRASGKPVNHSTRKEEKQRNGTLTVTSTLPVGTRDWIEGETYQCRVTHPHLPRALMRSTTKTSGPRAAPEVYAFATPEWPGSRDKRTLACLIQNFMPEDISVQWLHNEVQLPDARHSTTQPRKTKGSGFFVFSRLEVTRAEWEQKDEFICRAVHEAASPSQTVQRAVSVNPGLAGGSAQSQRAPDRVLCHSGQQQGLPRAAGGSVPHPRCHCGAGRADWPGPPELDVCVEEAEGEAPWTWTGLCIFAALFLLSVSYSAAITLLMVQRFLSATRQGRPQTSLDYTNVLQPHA

Binder	Ratio pH 6/7.4 (IC50) [1]	Ratio pH 6/7.4 (IC50) [2]	IC50 [3]	IC50 [4]	IC50 [5]	IC50 [6]	IC50 [13]	IC50 [14]	also measured
3A1 human IgG1 mAb (antibody, V domains shown, human IgG1 and human light chain constant domains; also called clone 3A1) VH: EVQVQESGGGLVQPGGSLRLSCAASGFTFDNYAMSWVRQAPGKGLEWVSAISWNGGSTYYAESMKGRFTISRDNAKNMLYLQMNSLKSEDTAVYYCAKDLLVAARGGMDYWGKGTLVTVSS VL: SSALTQPSAVSVSLEQTARITCQGGTLGSYGAHWYQQKPGQAPVLLIYGDNSRPSGIPERFSGTRSGGTATLTISGAQAEDEADYYCQSFDYSGNAVFGGGTHLTVL	1.5	1	4.76 nM	148 nM	152 nM	6.91 nM	–	–	–
16E4 human IgG1 mAb (antibody, V domains shown, also called clone 16E4) VH: EVQLVESGGGLVQPGGSLRLSCAASGFTFSSYYMSWVRQAPGKGLEWVSSIYSDGSYAYYADSVKGRFTISRDNAKNTLYLQMNSLKSEDTAVYYCAKDLKARYSGTYHDEGYDYWGQGTQVTVSS VL: SSALTQPSALSVTLGQSAKITCQGGSLGATYAYWYQQKPGQAPVLVIYDDDSRPSGIPERFSGSSSGGRATLTISGAQAEDEGDYYCQSAYSNGNAVFGGGTHLTVL	1.2	2.7	4.25 nM	156 nM	58 nM	5.17 nM	–	–	–
omalizumab variant Fab VH15 / VL3 (Fab, V domains shown) VH: EVQLVESGGGLVQPGGSLRLSCAVSGYSITSGHRWEWIRQAPGKGLEWVASIHYDGSTNYNPSVKGRITISRDDSKNTFYLQMNSLRAEDTAVYYCARATHYFGHWHFAVWGQGTLVTVSS VL: DIQLTQSPSSLSASVGDRVTITCRASQSVDYDGDSYMNWYQQKPGKAPKLLIEWGSYLRSGVPSRFSGSGSGTDFTLTISSLQPEDFATYYCQQNAEDPYTFGQGTKVEIK	–	–	–	–	–	–	–	–	Off-rate improvement ratio (against VHWT VLWT) [7]: 14.8; R0 (RU) [7]: 235 RU; koff [7]: 0.00035 s⁻¹; Off-rate improvement ratio (against VHWT VLWT) [8]: 18; R0 (RU) [8]: 285 RU; koff [8]: 0.000269 s⁻¹
18B9His-hIgG1-WT (antibody, V domains shown, also called VL18B9_Y49H; 18B9-His-WT) VH: QVQLVESGGGLVQPGGSLRLSCAASGFTFSSYVMSWVRQAPGKGLEWVSSIYSDGSHTYYADSVKGRFTISRDNAKNTLYLQMNSLKSEDTAVYYCAKNLEHYSGSYYYTDPRYDYWGQGTQVTVSS VL: SSALTQPSALSVTLGQTAKITCQGGSLGSSYVHWYQQKPGQAPVLVIHDGDSRPSGIPERFSGSSSGGTATLTISGAQAEDEDDYYCQSADSSGNAVFGGGTHLTVL	–	–	–	–	–	–	–	–	EC50 [9]: 0.115 nM; EC50 [10]: 0.142 nM
13E4-hIgG1-WT (antibody, V domains shown, also called clone 13E4) VH: ELQLVESGGGLVQPGGSLRLSCAASGFTFSSYVMSWVRQAPGKGLEWVSSIYHDGSHTYYADFVKGRFTISRDNAKNTLYLQMNSLKSEDTAVYYCASGTSYSGSYYYTDPFFGSWGQGTQVTVSS VL: HSAVTQPSALSVTLGQTAKITCQGGSLGSNYAYWYQQKPGQAPVLVIYDDDSRPSGIPERFSGSSSGGTATLTISGAQAEDEGDYYCQSADSNGNAVFGGGTHLTVL	–	–	–	–	–	–	–	–	EC50 [11]: 0.0938 nM; EC50 [12]: 0.0913 nM
3D6 human IgG1 mAb (antibody, V domains shown, human IgG1 and human light chain constant domains; also called clone 3D6) VH: QVQLVESGGGLVQPGGSLRLSCAASGFTFSSYYMTWVRQAPGKGLEWVSSIYSDGSNTYYADSVKGRFTISRDNAKNTLHLQMNSLKSEDTAVYYCAKDLKARYSGSYHDEGYDYWGQGTQVTVSS VL: QSALTQPSALSVTLGQTAKITCQGGSLGSSYAHWYQQKPGQAPVLVIYDDDSRPSGIPERFSGSSSGGRATLTISGAQAEDEGDYYCQSADSSGNPVFGGGTKLTVL	1.8	2.8	4.37 nM	214 nM	75.4 nM	8.04 nM	–	–	–
18B9His-hIgG1-ABDEG (antibody, V domains shown, also called 18B9His ABDEG; 18B9-hIgG1-ABDEG) VH: QVQLVESGGGLVQPGGSLRLSCAASGFTFSSYVMSWVRQAPGKGLEWVSSIYSDGSHTYYADSVKGRFTISRDNAKNTLYLQMNSLKSEDTAVYYCAKNLEHYSGSYYYTDPRYDYWGQGTQVTVSS VL: SSALTQPSALSVTLGQTAKITCQGGSLGSSYVHWYQQKPGQAPVLVIHDGDSRPSGIPERFSGSSSGGTATLTISGAQAEDEDDYYCQSADSSGNAVFGGGTHLTVL	–	–	–	–	–	–	–	–	EC50 [9]: 0.149 nM; EC50 [10]: 0.119 nM
20D5 human IgG1 mAb (antibody, V domains shown, also called clone 20D5) VH: QLQLVESGGGLVQPGGSLRLSCAASGFAFSSYVMTWVRQAPGKGLEWVSSIYSDGSHTYYADSVKDRFTISRDNAKNTLFLQMNSLKSEDTAVYYCAKDAEYYSGSYYYTDTKYDYWGQGTQVTVSS VL: SSALTQPSALSVTLGQTAKITCQGGSLGSSYAHWYQQKPGQAPVLVIYADDSRPSGIPERFSGSSSGGTATLTISGAQAEDEGDYYCQSADSSGNAVFGGGTHLTVL	1.1	1.1	3.38 nM	39.1 nM	35.2 nM	3.83 nM	–	–	–
18B9His_MG (antibody, V domains shown) VH: EVQLLESGGGLVQPGGSLRLSCAASGFTFSSYVMSWVRQAPGKGLEWVSSIYSDGSHTYYADSVKGRFTISRDNSKNTLYLQMNSLRAEDTAVYYCAKNLEHYSGSYYYTDPRYDYWGQGTLVTVSS VL: SSELTQDPAVSVALGQTVRITCQGGSLGSSYVHWYQQKPGQAPVLVIYDGDSRPSGIPDRFSGSSSGNTASLTITGAQAEDEADYYCQSADSSGNAVFGGGTQLTVL	–	–	–	–	–	–	1.74 µg/mL	0.176 µg/mL	–
18B9 human IgG1 mAb (antibody, V domains shown, human IgG1 and human light chain constant domains; also called clone 18B9) VH: QVQLVESGGGLVQPGGSLRLSCAASGFTFSSYVMSWVRQAPGKGLEWVSSIYSDGSHTYYADSVKGRFTISRDNAKNTLYLQMNSLKSEDTAVYYCAKNLEHYSGSYYYTDPRYDYWGQGTQVTVSS VL: SSALTQPSALSVTLGQTAKITCQGGSLGSSYVHWYQQKPGQAPVLVIYDGDSRPSGIPERFSGSSSGGTATLTISGAQAEDEDDYYCQSADSSGNAVFGGGTHLTVL	1.4	2.7	4.09 nM	112 nM	41.9 nM	5.65 nM	–	–	IC50 [15]: 1.07 µg/mL; IC50 [16]: 0.662 µg/mL
13E4_MG (antibody, V domains shown, germlined clone; also called germlined 13E4) VH: EVQLLESGGGLVQPGGSLRLSCAASGFTFSSYVMSWVRQAPGKGLEWVSSIYHDGSHTYYADFVKGRFTISRDNSKNTLYLQMNSLRAEDTAVYYCAKGTSYSGSYYYTDPFFGSWGQGTLVTVSS VL: SSELTQDPAVSVALGQTVRITCQGGSLGSNYAYWYQQKPGQAPVLVIYDDDSRPSGIPDRFSGSSSGNTASLTITGAQAEDEADYYCQSADSNGNAVFGGGTQLTVL	–	–	–	–	–	–	0.0633 µg/mL	0.0242 µg/mL	–
18E2_H S35H_MG (antibody, V domains shown, germlined clone) VH: EVQLLESGGGLVQPGGSLRLSCAASGFTFSSYVMHWVRQAPGKGLEWVSSIYHDGSHTYYADFVKGRFTISRDNSKNTLYLQMNSLRAEDTAVYYCAKGTSYSGSYYYTDPFFGSWGQGTLVTVSS VL: SSELTQDPAVSVALGQTVRITCQGDRLGSRYIYWYQQKPGQAPVLVIYDDDRRPSGIPDRFSGSSSGNTASLTITGAQAEDEADYYCQSADSSGNPVFGGGTQLTVL	–	–	–	–	–	–	0.671 µg/mL	0.0657 µg/mL	–
18E2_VL Y34H_MG (antibody, V domains shown, germlined clone) VH: QLLESGGGLVQPGGSLRLSCAASGFTFSSYVMSWVRQAPGKGLEWVSSIYHDGSHTYYADFVKGRFTISRDNSKNTLYLQMNSLRAEDTAVYYCAKGTSYSGSYYYTDPFFGSWGQGTLVTVSS VL: SSELTQDPAVSVALGQTVRITCQGDRLGSRYIHWYQQKPGQAPVLVIYDDDRRPSGIPDRFSGSSSGNTASLTITGAQAEDEADYYCQSADSSGNPVFGGGTQLTVL	–	–	–	–	–	–	61.4 µg/mL	0.706 µg/mL	–
18E2His2_MG (antibody, V domains shown, also called 18E2VHS35HVLY34HMG) VH: EVQLLESGGGLVQPGGSLRLSCAASGFTFSSYVMHWVRQAPGKGLEWVSSIYHDGSHTYYADFVKGRFTISRDNSKNTLYLQMNSLRAEDTAVYYCAKGTSYSGSYYYTDPFFGSWGQGTLVTVSS VL: SSELTQDPAVSVALGQTVRITCQGDRLGSRYIHWYQQKPGQAPVLVIYDDDRRPSGIPDRFSGSSSGNTASLTITGAQAEDEADYYCQSADSSGNPVFGGGTQLTVL	–	–	–	–	–	–	~11300 µg/mL	3.91 µg/mL	–
